# Assays:
# [1] = target: HIV-1 Env E1 R563Q (HIV-1 (clade B, individual 653116))
# [2] = target: HIV-1 Env NE1 Q563R (HIV-1 (clade B, individual 653116))
substance,measurement,setting,value
HIV-1 IIIB C34 Peptide,IC50 of inhibition of infection of TZM-bl cells by pseudovirus (luciferase),[1],0.6 µg/mL
same,IC50 of inhibition of infection of TZM-bl cells by pseudovirus (luciferase),[2],0.04 µg/mL
